Source: PMC3794917

Assays:
[1] = molecular target: Rad51;Rad52 (Saccharomyces cerevisiae) (UniProt P06778); assay: EM; conditions: RPA pre-bound, 60 mM NaCl, Rad52 EMSA: 10 mM Tris-HCl pH 8, 5 mM MgCl2, 100 mM NaCl, 37 C, 10 min, 0.27 uM XV2, 8% native PAGE, filament assays: SEB buffer, 60 mM NaCl (or titrated) …
[2] = molecular target: Rad51;Rad52-L264P L264P (Saccharomyces cerevisiae) (UniProt P06778); assay: EM; conditions: RPA pre-bound, 60 mM NaCl (WT Rad52 55%); Rad52 EMSA: 10 mM Tris-HCl pH 8, 5 mM MgCl2, 100 mM NaCl, 37 C, 10 min, 0.27 uM XV2, 8% native PAGE; filament assays: SEB buffer, 60 mM NaCl (or titrated) …; scale: % of complete Rad51 filaments associated with Rad52-L264P
[3] = molecular target: Rad51;Rad52 (Saccharomyces cerevisiae) (UniProt P06778); assay: EMSA (glutaraldehyde-fixed, agarose); conditions: Rad52 EMSA: 10 mM Tris-HCl pH 8, 5 mM MgCl2, 100 mM NaCl, 37 C, 10 min, 0.27 uM XV2, 8% native PAGE, filament assays: SEB buffer, 60 mM NaCl (or titrated) …, scale: mM NaCl
[4] = molecular target: Rad51;Rad52-L264P L264P (Saccharomyces cerevisiae) (UniProt P06778); assay: EMSA (glutaraldehyde-fixed, agarose); conditions: Rad52 EMSA: 10 mM Tris-HCl pH 8, 5 mM MgCl2, 100 mM NaCl, 37 C, 10 min, 0.27 uM XV2, 8% native PAGE, filament assays: SEB buffer, 60 mM NaCl (or titrated) …, scale: mM NaCl

Rad51;Rad52 (Saccharomyces cerevisiae), sequence (P06778 whole entry, looked up): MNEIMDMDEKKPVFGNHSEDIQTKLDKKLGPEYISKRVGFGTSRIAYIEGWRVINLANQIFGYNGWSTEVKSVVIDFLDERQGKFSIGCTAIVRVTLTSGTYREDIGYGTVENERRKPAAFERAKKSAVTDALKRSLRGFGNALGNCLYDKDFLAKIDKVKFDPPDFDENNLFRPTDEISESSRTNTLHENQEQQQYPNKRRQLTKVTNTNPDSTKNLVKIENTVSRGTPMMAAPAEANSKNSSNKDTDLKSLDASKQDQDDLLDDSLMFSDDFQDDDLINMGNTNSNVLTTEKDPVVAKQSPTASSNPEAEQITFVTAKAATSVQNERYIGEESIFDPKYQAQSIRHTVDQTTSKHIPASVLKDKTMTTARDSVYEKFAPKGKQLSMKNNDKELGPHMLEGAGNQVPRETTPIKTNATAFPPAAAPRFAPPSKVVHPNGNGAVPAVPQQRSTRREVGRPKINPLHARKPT
Rad51;Rad52-L264P L264P (Saccharomyces cerevisiae), sequence (P06778 whole entry L264P, looked up): as the sequence (P06778 whole entry, looked up) above, with L264P counted along it

Substance: 400-nt ssDNA fragment
- binding signal (% complete Rad51 filaments) ([1]; 55% of complete filaments carry Rad52): 48
- binding signal ([1]; scale: % of complete Rad51 filaments associated with Rad52): 55
- binding signal [2]: 74
- K half ([3]; RPA pre-bound, NaCl titration during assembly): 90
- K half [3]: 400
- K half ([4]; RPA pre-bound, NaCl added after assembly, no difference from WT): 400
- K half [4]: 90
